Experimental data taken from PMC2573054 (The Journal of Biological Chemistry, 2008).

B1: c-myc epitope-tagged human PLCγ2 (PLCγ2-222, wild type) (enzyme)
chain: MSTTVNVDSLAEYEKSQIKRALELGTVMTVFSFRKSTPERRTVQVIMETRQVAWSKTADKIEGFLDIMEIKEIRPGKNSKDFERAKAVRQKEDCCFTILYGTQFVLSTLSLAADSKEDAVNWLSGLKILHQEAMNASTPTIIESWLRKQIYSVDQTRRNSISLRELKTILPLINFKVSSAKFLKDKFVEIGAHKDELSFEQFHLFYKKLMFEQQKSILDEFKKDSSVFILGNTDRPDASAVYLHDFQRFLIHEQQEHWAQDLNKVRERMTKFIDDTMRETAEPFLFVDEFLTYLFSRENSIWDEKYDAVDMQDMNNPLSHYWISSSHNTYLTGDQLRSESSPEAYIRCLRMGCRCIELDCWDGPDGKPVIYHGWTRTTKIKFDDVVQAIKDHAFVTSSFPVILSIEEHCSVEQQRHMAKAFKEVFGDLLLTKPTEASADQLPSPSQLREKIIIKHKKLGPRGDVDVNMEDKKDEHKQQGELYMWDSIDQKWTRHYCAIADAKLSFSDDIEQTMEEEVPQDIPPTELHFGEKWFHKKVEKRTSAEKLLQEYCMETGGKDGTFLVRESETFPNDYTLSFWRSGRVQHCRIRSTMEGGTLKYYLTDNLTFSSIYALIQHYRETHLRCAEFELRLTDPVPNPNPHESKPWYYDSLSRGEAEDMLMRIPRDGAFLIRKREGSDSYAITFRARGKVKHCRINRDGRHFVLGTSAYFESLVELVSYYEKHSLYRKMRLRYPVTPELLERYNMERDINSLYDVSRMYVDPSEINPSMPQRTVKALYDYKAKRSDELSFCRGALIHNVSKEPGGWWKGDYGTRIQQYFPSNYVEDISTADFEELEKQIIEDNPLGSLCRGILDLNTYNVVKAPQGKNQKSFVFILEPKQQGDPPVEFATDRVEELFEWFQSIREITWKIDTKENNMKYWEKNQSIAIELSDLVVYCKPTSKTKDNLENPDFREIRSFVETKADSIIRQKPVDLLKYNQKGLTRVYPKGQRVDSSNYDPFRLWLCGSQMVALNFQTADKYMQMNHALFSLNGRTGYVLQPESMRTEKYDPMPPESQRKILMTLTVKVLGARHLPKLGRSIACPFVEVEICGAEYDNNKFKTTVVNDNGLSPIWAPTQEKVTFEIYDPNLAFLRFVVYEEDMFSDPNFLAHATYPIKAVKSGFRSVPLKNGYSEDIELASLLVFCEMRPVLESEEELYSSCRQLRRRQEELNNQLFLYDTHQNLRNANRDALVKEFSVNENQLQLYQEKCNKRLREKRVSNSKFYS
B2: PLCγ2 spPH (aa 471-913, Δ516-841), wild type (domain or fragment)
chain: GGSGGSKKDEHKQQGELYMWDSIDQKWTRHYCAIADAKLSFSDDIEQTMEEDNPLGSLCRGILDLNTYNVVKAPQGKNQKSFVFILEPKQQGDPPVEFATDRVEELFEWFQSIREITWKIDTK
B3: PLCγ1-122 (PLCγ1 with both portions of the split PH domain of PLCγ2), c-myc epitope-tagged (enzyme)
chain: MAGAASPCANGCGPGAPSDAEVLHLCRSLEVGTVMTLFYSKKSQRPERKTFQVKLETRQITWSRGADKIEGAIDIREIKEIRPGKTSRDFDRYQEDPAFRPDQSHCFVILYGMEFRLKTLSLQATSEDEVNMWIKGLTWLMEDTLQAPTPLQIERWLRKQFYSVDRNREDRISAKDLKNMLSQVNYRVPNMRFLRERLTDLEQRSGDITYGQFAQLYRSLMYSAQKTMDLPFLEASTLRAGERPELCRVSLPEFQQFLLDYQGELWAVDRLQVQEFMLSFLRDPLREIEEPYFFLDEFVTFLFSKENSVWNSQLDAVCPDTMNNPLSHYWISSSHNTYLTGDQFSSESSLEAYARCLRMGCRCIELDCWDGPDGMPVIYHGHTLTTKIKFSDVLHTIKEHAFVASEYPVILSIEDHCSIAQQRNMAQYFKKVLGDTLLTKPVEISADGLPSPNQLKRKILIKHKKLAEGSAYEEVPTSMMYMEDKKDEHKQQGELYMWDSIDQKWTRHYCAIADAKLSFSDDIEQTMGNEDEEEPKEVSSSTELHSNEKWFHGKLGAGRDGRHIAERLLTEYCIETGAPDGSFLVRESETFVGDYTLSFWRNGKVQHCRIHSRQDAGTPKFFLTDNLVFDSLYDLITHYQQVPLRCNEFEMRLSEPVPQTNAHESKEWYHASLTRAQAEHMLMRVPRDGAFLVRKRNEPNSYAISFRAEGKIKHCRVQQEGQTVMLGNSEFDSLVDLISYYEKHPLYRKMKLRYPINEEALEKIGTAEPDYGALYEGRNPGFYVEANPMPTFKCAVKALFDYKAQREDELTFIKSAIIQNVEKQEGGWWRGDYGGKKQLWFPSNYVEEMVNPVALEPEREHLDENSPLGDLCRGILDLNTYNVVKAPQGKNQKSFVFILEPKQQGDPPVEFATDRVEELFEWFQSIREITWKIDTKETEGKIMERRKKIALELSELVVYCRPVPFDEEKIGTERACYRDMSSFPETKAEKYVNKAKGKKFLQYNRLQLSRIYPKGQRLDSSNYDPLPMWICGSQLVALNFQTPDKPMQMNQALFMTGRHCGYVLQPSTMRDEAFDPFDKSSLRGLEPCAISIEVLGARHLPKNGRGIVCPFVEIEVAGAEYDSTKQKTEFVVDNGLNPVWPAKPFHFQISNPEFAFLRFVVYEEDMFSDQNFLAQATFPVKGLKTGYRAVPLKNNYSEDLELASLLIKIDIFPAKQENGDLSPFSGTSLRERGSDASGQLFHGRAREGSFESRYQQPFEDFRISQEHLADHFDSRERRAPRRTRVNGDNRL

Target: His-Rac2 (hexahistidine-tagged Rac2^G12V, aa 2-177) (human, UniProt P15153 2-177, G12V)
Test: SPR

Binder | Kd [µM] | koff [s⁻¹] | kon [M⁻¹ s⁻¹]
B1 | 3.9 | 0.0031 | 806
B2 | 17 | 0.0016 | 93.8
B3 | 5.8 | 0.0025 | 434
